Assay: soluble fraction after stress (log2 fold change); higher = more stays soluble; pooled small domains, quantitative proteomics
Settings: stress: 75 degC
In the case of “HMAHYYVRNGYYYYQRRIPLDLRKFYSGANIKASLKTKDPAIAALFVAKFDRQYDAEFAQRRLNPD”, the “soluble fraction (log2)” value is reported as -0.533. With “HMAIELIDLIKNPETAPFSKLKYLKWMPEAEVTGFFNNLFQLNVTARETGDWSTVDKFLEDEGDRIAAQVA” the “soluble fraction (log2)” value was -0.0284. For “HMAIEMSTITKRVTSTGEIRYRALLQIRREDVNYTESRTFSKKSLAEAWLKKREVELEANPELLHQ”, the “soluble fraction (log2)” value was -3.44. In the case of “HMAIGERIRFLRTLRRMTQKELGLAAGFPEKNASIRMAQYENGTRTPKAELTAVLAEILKVSPQALTV”, the “soluble fraction (log2)” value is reported as -1.52. With “HMAIKNKNEQLEAIIKFADLRGEFKTADIEELLSIKSSRARLLISELVKIGKLESIGSNRNRRYHIK” the “soluble fraction (log2)” value was -0.974. With “HMAIKTGAVTGHGVKVRKGPSTNEKAIHDVLYGSRLQILEEKNGFLKAKFEDGTTGWISKQFVTTTDKNLL” the “soluble fraction (log2)” value was -0.0233. For “HMAIKWTPEIEDEVSNKLKEKWSPEQISAWLKKNKSIMISHQRIYQFIVEDKMSGGNLYRNLRQ”, the “soluble fraction (log2)” value was -2.45. With “HMAIPTTDSDKATDAQIKQIKLLGDIHPNLKLDAWLERNHVTWETLTREQAGNMMKAIKNKYGD” the “soluble fraction (log2)” value was -0.105. With “HMAISEAERARLQTKIKERNKMARWINTNLNPTSKIRNINPAETVRKLMTQDDADSLERSLDAFMEA” the “soluble fraction (log2)” value was -0.0807. In the case of “HMAIVNVEVPSLVGKTEQEARNLLTEAGLKVNVVNDEDESKNDGVVLRQSKDAGTEVQEGTTITITVNKVS”, the “soluble fraction (log2)” value is reported as 0.0932. In the case of “HMAKDDFMSFVKAVWPEFIEGAHHRVIAQKFNDLATGKITRLIVNMPPRHTKSEFASYLLPAW”, the “soluble fraction (log2)” value is reported as 0.214. In the case of “HMAKDEYGLTSNQRAFADEYIRNKGNATQAYLFAYPHIKKENTAAVNASRLLRNAKVSKYIADRTKEIL”, the “soluble fraction (log2)” value is reported as -0.103. For “HMAKIDSRKALIDQLTTTFTRAQLEELITKNELSTDARFFLSQWNAKGWIRKTAKNVYEKLR”, the “soluble fraction (log2)” value was -0.969. In the case of “HMAKLTPDQQELRAIRIELQMSQPDFADAININVPRLSSYEYGRTAGVPTSIMEAARELKRSMSR”, the “soluble fraction (log2)” value is reported as -0.848. With “HMAKRDEIEAELPRFVATITQELAASRDVLSMIEHYKQNSGPVFSAELDVLTADMRSGSYEAALTRFEARF” the “soluble fraction (log2)” value was 0.188. In the case of “HMAKRKYKSFKDVAEFAQKLGIKSSTEWWAYVRGHEIPSDIPKDPSTYYKKEWTTWGDFLGTGYVSSA”, the “soluble fraction (log2)” value is reported as -0.513. In the case of “HMAKRTVPSVAEAIDNFRRQHRRMPSYAEMLPLLGVRSKSVVHFWINKLLENGLLEKDDKGYLTPGS”, the “soluble fraction (log2)” value is reported as -0.134. For “HMAKSPYDVLGLKEDAPFDEVKKRYRELVKKYHPDILMGRGESEEMIEKSTRKLQEINEAYETIKQRA”, the “soluble fraction (log2)” value was 0.119. For “HMAKVDIPHEMVDQRIDEIVEEIKMNLESQNMSLDDYLKRMNQTEAQLRANYEATAAEQVRQGLV”, the “soluble fraction (log2)” value was 0.858. In the case of “HMALDSQEVGYNIEARGARPVVAQLGKAGQFSAVENSIRLGDDNWIALAPKLAGGGNAGFTAGIKSALS”, the “soluble fraction (log2)” value is reported as -0.0514. In the case of “HMALIGSNLRHLRNERKLSQQELADLIRVGRTTIANIEANLANPGHKTLLEIVKVFDITIDELLHTDLTK”, the “soluble fraction (log2)” value is reported as -1.79. With “HMALKPKITIEELIRILNESKDLSDSETAKILNKDYTTAKYGKEFTSINVQGARYALDIATNTS” the “soluble fraction (log2)” value was -0.145. With “HMALLSNEDIMFNLEFNRDLAVASNDGVSRDEFLRNKYGISEEEYNMLRARYGDGLNAARIKEYVGQRD” the “soluble fraction (log2)” value was -0.182. With “HMALLSNTVDELHAGMRLDSYLFESGLYPSRSFAVKQIEAGKVFLNGDAVTKKTLVSNGDFIVYELEE” the “soluble fraction (log2)” value was -0.854. In the case of “HMALMLGGLIVYLNTTAPRDDIDLIELSKDTKAMAAFGNKLASPDYNGKQFALDWHELSRDEIMSKYFS”, the “soluble fraction (log2)” value is reported as -2.03. In the case of “HMALPDWLDPEAWAAWKRHRKAIRKPLTEDAVALSIRELAKLRDEGYGPTSVIENAILKGWQGLYPPK”, the “soluble fraction (log2)” value is reported as -0.364. In the case of “HMALPGESVYVSILQSGSNRDQGVGYLDDGTMVVVDGAIKDIGKSIEVVINKSHQTVAGKMLFAKKVA”, the “soluble fraction (log2)” value is reported as -0.667. In the case of “HMALPQPDDDRQDTKKRILDMAEDLLLTRGFNAFSYQHISSELGMKNAAIHYHYPKKNDLGVAVIQRYRRR”, the “soluble fraction (log2)” value is reported as 0.128. In the case of “HMALQDKYAELLTAANTMGVTNLAVAEKDGTLHVSGTAKSTADYDSLWALYDKIDPNMASGDLMMNI”, the “soluble fraction (log2)” value is reported as 0.36. In the case of “HMALQDKYKELTDAATAAGVTDLQVREQDNVLYIDGTAPSGAVKDQLWAIYDKIDPNFVSGDLVLNVNVD”, the “soluble fraction (log2)” value is reported as 0.0863. In the case of “HMALTLDEARTQGRVGETFYGYLVALKTDAETEKLVNDINAERKASYQQLAKQNNVSVDDIAKLAGQKLV”, the “soluble fraction (log2)” value is reported as 0.00592. In the case of “HMALWFDEWKKYQDTIASADLLPDKAERDALIAQAEDRFNYWMDIYPRSASLNHSFDDLYEEHRRKIE”, the “soluble fraction (log2)” value is reported as -1.01. For “HMAMDYEGFKKSVYALTSIDLNAYKERQMKRRIDTLIAKNKYNGYEDYTAAIKKDKALFEEFVNYLTIN”, the “soluble fraction (log2)” value was -2.05. For “HMAMMTKQRLIQLIHIARNDLQMDEDTYRQMLQGLTGKASTKGMDTPQLNRVLESMKKKGFRIK”, the “soluble fraction (log2)” value was -1.69. With “HMAMNLQETVLMQLRDLILRGTFEPGQRLSEQPLAERLKASRTPVRSALVTLEQEGLIEASETGKYLVRQ” the “soluble fraction (log2)” value was -0.821. In the case of “HMAMTNEEREALISEIKQTVNNSIDLKKDISDTEIKEAITQAVFERSEKSYLSIAEKQDIITAVFNSMR”, the “soluble fraction (log2)” value is reported as 0.378. In the case of “HMANADVVLVDLDKEYTVDAAKFHSVVKHSPFNGFAVKGAPVLTIVRGTVVAENGEVVGQPGHSKMVRP”, the “soluble fraction (log2)” value is reported as 0.108. For “HMANEGWDIYKLDIRNHKQPNGEYYSEKEIQSTINNTFGKGSFNVDWKKYEKDKEYREKTNYYYFQAKYFV”, the “soluble fraction (log2)” value was -0.903. For “HMANHIAAIHVLKSKLQMSDSDYRVLITGLTQKASTKDMSDIERQRVRDHMQGLAERMGVVK”, the “soluble fraction (log2)” value was -0.66. In the case of “HMANIAVTIPTGSSGDRIADILLQAGLIKDKQDFNQAVIAAGAEGKLRAGYFVIPSNATPAEIISILT”, the “soluble fraction (log2)” value is reported as -0.521. In the case of “HMANILKHKNKDGVITSYTIRVYHGYDEAGKRLRPYTMNYKPAPNMTARQIEKELNRQAVQFEEQIKNGYA”, the “soluble fraction (log2)” value is reported as -0.892. In the case of “HMANKLTSTNLAKQHKMGLSEMYAELMNSGYLIEKDGKYELTPLGISIGGESKPNRYKKGEFYFLWPSDIS”, the “soluble fraction (log2)” value is reported as -0.618. For “HMANLLNLREIPVANIRPELTMFLIPGENITQAFQTIRDQVVFTNKRLIVANVQGLTGKKVSYTSYPY”, the “soluble fraction (log2)” value was -0.38. With “HMANPFQELTERELDVLRQVAAGKNNREIAEALFIGEKTVKTHISNILSKLHLADRTQAAVYAWQQGMM” the “soluble fraction (log2)” value was -0.223. With “HMANTVVMPNLLGKTMTEAKIELKELGIDITLKGSESSSKYSAGQIMEQNIAEGTKVEVGSSVEVTIAGS” the “soluble fraction (log2)” value was -0.579. With “HMAPAPDEAFAEFVRSSAPSLTRTAWLLTGDRGHAQDLVQNAYAKTLQAWGRLDAEGALAYTRRAVIT” the “soluble fraction (log2)” value was 0.174. In the case of “HMAPDGIEDKEGWLKVLPMITNLSIQMQNLQARGMDYEHIRNLLHETLLRYDDRIDSNLFIPNV”, the “soluble fraction (log2)” value is reported as -0.059. In the case of “HMAPDNDELEKAKKIVNAFIEAKAKGLGVVSLGTKMIDAPVVKRAQKIIDQTIVMGKLSLNWQDEFFN”, the “soluble fraction (log2)” value is reported as -0.208. In the case of “HMAPEVTVHDGSIVVRGHVGGVTVYDESGRQIASVQSRGAVAIPVPAGHTYLYIVKPEGKPAIKVRAAH”, the “soluble fraction (log2)” value is reported as -0.265. For “HMAPKSALKIIEQISNNPRATMTDLANLTGYSRRWVAQTIKRLQEENIIKRIGSDKSGYWEIIG”, the “soluble fraction (log2)” value was -0.807. With “HMAPLATLEADGNGAVKLPNLAGHAIREVAAALGGANLALIPIGSGTSWKQNPAPGTILHKGDTVTVYF” the “soluble fraction (log2)” value was 0.153. With “HMAPLEPLTDRETEMLVRLANGASNKVMARESFVSENTIKFHLKNIYAKLGVTSRLQAIAAARNQGLI” the “soluble fraction (log2)” value was -1.31. With “HMAPLRTQYVNVNYANAAEIKTLISGADKEVGSLLSERGSVVVDKRTNTLIIQDTQARLNDIGDLIEQLD” the “soluble fraction (log2)” value was 0.144. For “HMAPMYGEFENVRLTDAQLDKLNARFPPEQVQREIEALSGYMRSKGKRYADHYATLLNWLRRDFPP”, the “soluble fraction (log2)” value was -0.238. For “HMAPNVEENSKLIGEIGMTLTPLRPSGIATINNRRVDVVSNGDFIDQDERVMVKRVQGARVVVIPV”, the “soluble fraction (log2)” value was 0.168. In the case of “HMAPPDFTTFMRNYQDMVYSTAVRLIGNETQAEDIAQEVFIKAHAHFENLRTSPSAGGWLKTVATNLSIN”, the “soluble fraction (log2)” value is reported as -1.2. In the case of “HMAPQAETLLRQVMALPSKDRAVLYLHYYEGFSTREVGDMLHISQSAVTTRLLRARKKLKEIL”, the “soluble fraction (log2)” value is reported as -0.122. With “HMAPRLTERERQVLQLIAEGLTSMQIGDRLHIAASTVDVHRRNLMRKLDLHNVADLTRYAITQGISP” the “soluble fraction (log2)” value was -0.792. With “HMAPRQDIAYYTVKPGDTVLAIAEKFGLQPETLMWSNSIIEQNPDRLSIGDELRILPVDGVLHVVK” the “soluble fraction (log2)” value was 0.129. For “HMAPRSSAVYFYLSQVALKKNQPRKAEAMARRGLTVSQDANRRRALWQLILRSGQAQNNTRVIREAQQAL”, the “soluble fraction (log2)” value was -0.0212. With “HMAPSLSEYAYEEIKHAIERGVYPPGAKLITQEIADRLGISRTPVVAAVNRLTAEGYADAVPQHGIFVK” the “soluble fraction (log2)” value was -0.073. For “HMAPVLTRREHEVLHLLTDGLDNRTIARNLFISEATVKFHLHNIMGKFGVHRRAALVSTALRG”, the “soluble fraction (log2)” value was -2.22. With “HMAPVTPEERAQAMEEYKAMVTIEGYTPPKNIIEQNYKRGLWSETMLNMAVTKGAITEAEKLEIMN” the “soluble fraction (log2)” value was 0.463. For “HMAQIVNLPRKNVNGASYYYYEVQPKETIYSISRKLGVSGAEIQRHNPSVADGLKIGQVLYFPAEG”, the “soluble fraction (log2)” value was -0.0642. For “HMAQLPADMSKVKSADISEAQLQEFIQKATSSGYNMNQIEMEFAKRGMSENEVSLLRPRLRRLMAS”, the “soluble fraction (log2)” value was -0.0413. In the case of “HMAQLSDDEQAIIDTITRRGDATMSELIASVNVSTPRLMSMLIDMEFRSLITALPGGRYQIRLIN”, the “soluble fraction (log2)” value is reported as -1.54. With “HMAQLTPREREVLVLIAEGKSNKEIADQLNIGVRTIETHRERIMRRLNIHSVAGLTKYAIANGLVTL” the “soluble fraction (log2)” value was -0.36. For “HMAQPIPSGADIRAAREAAGMTLRRFAEYIAGPDFSTWSRYETGKPIRVKNISPEVWQRVRKFIAQNKG”, the “soluble fraction (log2)” value was -0.33. In the case of “HMAQQEMEIIPLRHRQVEQVMPTLRPLLEPGAALSGMNNQLILRASRKNREEIKQALAVIDT”, the “soluble fraction (log2)” value is reported as 0.0427. For “HMAQSEDLMVMAQRILGGPEAQSFFQAEATRQGLAGFLPEPIPDFLQRLERKLSGSVGSATAHAMVAQTMG”, the “soluble fraction (log2)” value was 0.0569.

— the domain aggregation screens of Martell et al. (2025)
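Also: 20 min heating vs room temperature control held 20 min.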
